From the supplement of paper PMC7877785
± gives the uncertainty stated by the source.

Experiment: self-splicing fitness, log relative to wild type (ln ratio); higher = more splicing; Tetrahymena group I intron in knt gene, E. coli kanamycin selection, DiMSum; sequences stand for … in CUCUCU…GGAGGGAAAAGUUAUCAGGCAUGCACCUGGUAGCUAGUCUUUAAACCAAUAGAUUGCAUCGGUUUAAAAGGCAAGACCGUCAAAUUGCGGGAAAGGGGUCAACAGCCGUUCAGUACCAAGUCUCAGGGGAAACUUUGAGAUGGCCUUGCAAAGGGUAUGGUAAUAAGCUGACGGACAUGGUCCUAACCACGCAGCCAAGUCCUAAGUCAACAGAUCUUCUGUUGAUAUGGAUGCAGUUCACAGACUAAAUGUCGGUCGGGGAAGAUGUAUUCUUCUCAUAAGAUAUAGUCGGACCUCUCCUUAAUGGGAGCUAGCGGAUGAAGUGAUGCAACACUGGAGCCGCUGGGAACUAAUUUGUAUGCGAAAGUAUAUUGAUUAGUUUUGGAGUACUCGUGGUCG
Outline: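 Six replicate transformations of E. coli BL21(DE3) with a pET-22b(+) library were grown overnight at 37°C or 30°C. The library randomised all eight P1ex-region intron nucleotides, the intron lying in the knt kanamycin-resistance gene, and plates were LB agar with or without 25 μg/mL kanamycin plus 100 μg/mL carbenicillin, 50 μM IPTG and 0.2% rhamnose. Pooled colonies were amplicon-sequenced on an Illumina HiSeq 2500, and fitness is the DiMSum error-weighted combination of wild-type-normalised replicate fold changes, kanamycin versus none.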

Row | Sequence | self-splicing fitness (ln) (30 °C) | self-splicing fitness (ln) (37 °C)
1 | GACUAGCAAUAUUACGAUUC | -0.598 ± 0.065 | -0.35 ± 0.072
2 | GAAGAGCAAUAUUACGGUCU | -2.52 ± 0.26 | -0.469 ± 0.24
3 | UCAAAGCAAUAUUACGAAGC | -3.5 ± 0.33 | -1.84 ± 0.38
4 | AUACAGCAAUAUUACGAAGU | -3.31 ± 0.12 | -1.22 ± 0.11
5 | CGGAAGCAAUAUUACGUUUG | -1.9 ± 0.071 | -1.35 ± 0.089
6 | CCGUAGCAAUAUUACGCGUA | -3.69 ± 0.3 | -2.06 ± 0.31
7 | AUUAAGCAAUAUUACGCUGU | -3.23 ± 0.16 | -1.97 ± 0.19
8 | AUCAAGCAAUAUUACGUGGC | -4.3 ± 0.37 | -3.52 ± 0.35
9 | GGCCAGCAAUAUUACGGCCC | -2.83 ± 0.42 | 
10 | GCUGAGCAAUAUUACGUCUG | -2.08 ± 0.14 | -0.981 ± 0.14
11 | AGAGAGCAAUAUUACGACGC | -2.54 ± 0.34 | -0.3 ± 0.28
12 | ACUGAGCAAUAUUACGUUGU | -3.71 ± 0.26 | -1.53 ± 0.14
13 | CUCUAGCAAUAUUACGCCAA | -2.35 ± 0.47 | -2.31 ± 0.45
14 | AGACAGCAAUAUUACGAAGC |  | -1.62 ± 0.28
15 | UGUGAGCAAUAUUACGAUCA | -0.397 ± 0.23 | -0.874 ± 0.32
16 | AUGGAGCAAUAUUACGUUUU | -3.1 ± 0.36 | -2.05 ± 0.31
17 | ACAAAGCAAUAUUACGUACA | -1.6 ± 0.083 | -0.786 ± 0.089
18 | AUAGAGCAAUAUUACGAUAU | -0.196 ± 0.065 | 1.04 ± 0.082
19 | CGUCAGCAAUAUUACGUUGC | -3.95 ± 0.26 | -2.89 ± 0.18
20 | ACAUAGCAAUAUUACGUUCG | -1.04 ± 0.075 | -0.65 ± 0.1
21 | GAUAAGCAAUAUUACGCCGU | -0.976 ± 0.15 | -0.545 ± 0.17
22 | CGUUAGCAAUAUUACGCCUG | -0.175 ± 0.085 | 0.664 ± 0.1
23 | GUCCAGCAAUAUUACGACUA | -1.52 ± 0.11 | -0.869 ± 0.11
24 | CUACAGCAAUAUUACGAUCC | -4.14 ± 0.36 | -1.44 ± 0.26
25 | CGACAGCAAUAUUACGGGUC | -4.52 ± 0.32 | -3.14 ± 0.29

Row | Sequence | self-splicing fitness (ln) (30 °C) | self-splicing fitness (ln) (37 °C)
26 | ACUCAGCAAUAUUACGUUGA | -2.37 ± 0.15 | -0.607 ± 0.14
27 | GUCCAGCAAUAUUACGUAUA | -1.37 ± 0.073 | -0.787 ± 0.073
28 | GGAUAGCAAUAUUACGUUGG | -2.7 ± 0.16 | -2.17 ± 0.22
29 | CCAAAGCAAUAUUACGUUCC | -3.37 ± 0.24 | -2.93 ± 0.32
30 | AGUGAGCAAUAUUACGAGAC |  | -2.17 ± 0.24
31 | ACAAAGCAAUAUUACGCUUC | -3.15 ± 0.14 | -2.46 ± 0.16
32 | UCAAAGCAAUAUUACGUUUC | -4.09 ± 0.26 | -3.15 ± 0.2
33 | GUGAAGCAAUAUUACGACUU | -0.643 ± 0.056 | -0.276 ± 0.084
34 | CAGAAGCAAUAUUACGCUGG | -2.84 ± 0.15 | -2.21 ± 0.15
35 | AACAAGCAAUAUUACGCAAG | -1.88 ± 0.084 | -0.493 ± 0.086
36 | GACGAGCAAUAUUACGCGCA | -1.71 ± 0.23 | -1.3 ± 0.21
37 | CACUAGCAAUAUUACGGUAA | -2.52 ± 0.16 | -0.923 ± 0.11
38 | GGGUAGCAAUAUUACGCCUG | -1.42 ± 0.12 | -0.219 ± 0.14
39 | AACUAGCAAUAUUACGAAGU | -3.67 ± 0.3 | -2 ± 0.13
40 | CUACAGCAAUAUUACGCAUG | -1.48 ± 0.086 | -1.44 ± 0.079
41 | UCUGAGCAAUAUUACGGCAA | -2.44 ± 0.4 | -1.8 ± 0.35
42 | UAUCAGCAAUAUUACGUUUA | -0.174 ± 0.055 | -0.0219 ± 0.069
43 | CCACAGCAAUAUUACGGAAU | -3.23 ± 0.17 | -2.21 ± 0.18
44 | CGACAGCAAUAUUACGUACG | -3.63 ± 0.21 | -2.92 ± 0.38
45 | UCGCAGCAAUAUUACGAGAC | -3.18 ± 0.35 | -1.6 ± 0.4
46 | AGCAAGCAAUAUUACGGUCC | -0.25 ± 0.07 | -0.276 ± 0.081
47 | UUAGAGCAAUAUUACGACUC | -2.73 ± 0.39 | 
48 | UUCCAGCAAUAUUACGAUUU | -2.34 ± 0.088 | -0.783 ± 0.1
49 | CGGAAGCAAUAUUACGGAUU | -4.05 ± 0.2 | -2.36 ± 0.13
